According to publication doi:10.1101/2020.09.29.319483:
pKi: −log10 of the molar value.

Legend:
[1] = target: human glucagon-like peptide-1 receptor (human) (UniProt P43220); test: radioligand binding
[2] = target: human glucagon-like peptide-1 receptor (human) (UniProt P43220)

Chain of UniProt P43220 (P43220 24-463): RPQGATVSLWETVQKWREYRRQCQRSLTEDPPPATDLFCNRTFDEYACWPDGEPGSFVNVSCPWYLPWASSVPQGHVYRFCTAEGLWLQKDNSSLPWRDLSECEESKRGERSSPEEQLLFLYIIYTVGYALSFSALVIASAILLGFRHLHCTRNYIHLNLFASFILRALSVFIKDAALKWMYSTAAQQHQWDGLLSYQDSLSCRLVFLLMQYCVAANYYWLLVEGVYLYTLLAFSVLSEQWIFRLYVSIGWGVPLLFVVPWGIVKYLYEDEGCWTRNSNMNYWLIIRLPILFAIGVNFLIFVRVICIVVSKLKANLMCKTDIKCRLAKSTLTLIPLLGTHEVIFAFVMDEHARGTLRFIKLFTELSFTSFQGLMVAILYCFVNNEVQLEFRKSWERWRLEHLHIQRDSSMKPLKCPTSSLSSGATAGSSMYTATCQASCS

## liraglutide (peptide)
[1]
  pKi: 8.36

## exenatide (from UniProt P26349 48-87) (peptide)
[2]
  cAMP production, candidate selection (CS) CHO-GLP-1R cell line: 0.11 nM
[1]
  pKi: 10.04
